The results in this text go back to PMC10381965.

The data set has as its target CBF1;CCAN (CENP-LN, CENP-OPQU+, CENP-HIK-TW, CENP-C) (Saccharomyces cerevisiae;Saccharomyces …, UniProt P17106;P38907;P38265;Q06675;Q02732;P53298;P38313;Q12493;Q06162;Q12262;Q12748;P47 …, |). Description: cryo-EM structure (3.4 Å); free C0N3 DNA without octamer; topological entrapment, 25 bp contacted; Binding buffer for IK assembly not given in the material; proteins purified in 20 mM Hepes pH 8.0, 300 mM NaCl, 0.5 mM TCEP.

B1: C0N3 153 bp (chimeric CEN3/W601) (dsDNA)
DNA 1: ATAAGTCACATGGTGCCGAGGCCGCTCAATTGGTCGTAGACAGCTCTAGCACCGCTTAAACGCACGTACGCGCTGTCCCCCGCGTTTTAATATTAGTGTATTTGATTTCCGAAAGTTAAAAAAGAAATAGTAAGAAATATATATTTCATTGAA
DNA 2: TTCAATGAAATATATATTTCTTACTATTTCTTTTTTAACTTTCGGAAATCAAATACACTAATATTAAAACGCGGGGGACAGCGCGTACGTGCGTTTAAGCGGTGCTAGAGCTGTCTACGACCAATTGAGCGGCCTCGGCACCATGTGACTTAT
As for B1, the binding result is “binds”.
